Measured values taken from paper PMC6385231, “Activity-Regulated Cytoskeleton-Associated Protein (Arc/Arg3.1) is Transiently Expressed after Heat Shock Stress and Suppresses Heat Shock Factor 1” (Scientific Reports, 2019).

Biological target: T1, GST-tagged human HSF1 (human, UniProt Q00613 1-529)
T1 construct: Heat shock factor 1 (HSF1), human (hHSF1); The authors surmise that GST dimers induce HSF1 oligomerisation; also called GST-HSF1; GST-hHSF1
T1 sequence (looked up): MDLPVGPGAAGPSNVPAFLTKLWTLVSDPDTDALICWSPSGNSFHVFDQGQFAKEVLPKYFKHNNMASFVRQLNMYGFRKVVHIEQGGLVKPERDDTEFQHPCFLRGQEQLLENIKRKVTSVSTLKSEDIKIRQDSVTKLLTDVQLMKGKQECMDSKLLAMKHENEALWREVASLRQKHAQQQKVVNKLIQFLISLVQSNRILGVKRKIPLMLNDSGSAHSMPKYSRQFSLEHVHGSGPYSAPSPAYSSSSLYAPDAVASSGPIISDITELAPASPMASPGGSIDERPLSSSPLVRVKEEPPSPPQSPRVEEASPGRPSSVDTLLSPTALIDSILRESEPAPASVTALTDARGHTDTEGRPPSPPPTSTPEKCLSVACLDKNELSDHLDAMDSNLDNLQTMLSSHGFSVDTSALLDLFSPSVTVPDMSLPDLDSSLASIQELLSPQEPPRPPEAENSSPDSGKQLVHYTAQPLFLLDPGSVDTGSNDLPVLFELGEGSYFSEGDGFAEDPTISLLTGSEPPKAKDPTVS
Experiment: pull-down; GST or GST-hHSF1 on glutathione-agarose beads incubated with purified His-Arc in 20 mM MOPS pH 7.2, 100 mM KCl, 0.5% Tween, 2 μg/mL aprotinin, 3 h at 4°C; Western analysis with anti-GST and anti-Arc; with and without heat shock treatment
Conditions: both partners purified

B1: His-tagged human Arc/Arg3.1 (natural protein, UniProt Q7LC44 1-396, looked up)
chain: MELDHRTSGGLHAYPGPRGGQVAKPNVILQIGKCRAEMLEHVRRTHRHLLAEVSKQVERELKGLHRSVGKLESNLDGYVPTSDSQRWKKSIKACLCRCQETIANLERWVKREMHVWREVFYRLERWADRLESTGGKYPVGSESARHTVSVGVGGPESYCHEADGYDYTVSPYAITPPPAAGELPGQEPAEAQQYQPWVPGEDGQPSPGVDTQIFEDPREFLSHLEEYLRQVGGSEEYWLSQIQNHMNGPAKKWWEFKQGSVKNWVEFKKEFLQYSEGTLSREAIQRELDLPQKQGEPLDQFLWRKRDLYQTLYVDADEEEIIQYVVGTLQPKLKRFLRHPLPKTLEQLIQRGMEVQDDLEQAAEPAGPHLPVEDEAETLTPAPNSESVASDRTQPE
notes: Arc/Arg3.1 (activity-regulated cytoskeleton-associated protein), human (hArc/Arg3.1); The construct and its purification are not described in the methods; also called His-Arc; His-Arc/Arg3.1; source: purified
- binding result: binds
